B1: ASGR1 (receptor)
chain: MTKEYQDLQHLDNEESDHHQLRKGPPPPQPLLQRLCSGPRLLLLSLGLSLLLLVVVCVIGSQNSQLQEELRGLRETFSNFTASTEAQVKGLSTQGGNVGRKMKSLESQLEKQQKDLSEDHSSLLLHVKQFVSDLRSLSCQMAALQGNGSERTCCPVNWVEHERSCYWFSRSGKAWADADNYCRLEDAHLVVVTSWEEQKFVQHHIGPVNTWMGLHDQNGPWKWVDGTDYETGFKNWRPEQPDDWYGHGLGGGEDCAHFTDDGRWNDDVCQRPYRWVCETELDKASQEPPLL
B2: KREMEN1 (receptor)
chain: ARPAPSPGLGPECFTANGADYRGTQNWTALQGGKPCLFWNETFQHPYNTLKYPNGEGGLGEHNYCRNPDGDVSPWCYVAEHEDGVYWKYCEIPACQMPGNLGCYKDHGNPPPLTGTSKTSNKLTIQTCISFCRSQRFKFAGMESGYACFCGNNPDYWKYGEAASTECNSVCFGDHTQPCGGDGRIILFDTLVGACGGNYSAMSSVVYSPDFPDTYATGRVCYWTIRVPGASHIHFSFPLFDIRDSADMVELLDGYTHRVLARFHGRSRPPLSFNVSLDFVILYFFSDRINQAQGFAVLYQAVKEELPQERPAVNQTVAEVITEQANLSVSAARSSKVLYVITTSPSHPPQTVPGSNSWAPPMGAGSHRVEGWTVYGLATLLILTVTAIVAKILLHVTFKSHRVPASGDLRDCHQPGTSGEIWSIFYKPSTSISIFKKKLKGQSQQDDRNPLVSD

Target: SARS-CoV-2 S-ECD-hFc (extracellular domain of the spike (S) protein, hFc-tagged) (SARS-CoV-2, UniProt P0DTC2 14-1213)
Experiment: flow cytometry on cells

Binder | Kd [nM]
B1 | 94.8
B2 | 19.3

Source: paper doi:10.1101/2020.09.09.287508 (bioRxiv, 2020)
